What was measured:
[1] = biological target: FcRs expressed by THP-1 cells; test: flow cytometry on THP-1 cells (self-expressing FcRs), anti-human IgG-Fc PE
[2] = biological target: human FcγRIIb (human) (UniProt P31994); test: flow cytometry on CHOS-hCD32b cells (overexpressing human FcγRIIb), anti-human IgG-Fc PE
Sequence of human FcγRIIb (human) (P31994 43-310): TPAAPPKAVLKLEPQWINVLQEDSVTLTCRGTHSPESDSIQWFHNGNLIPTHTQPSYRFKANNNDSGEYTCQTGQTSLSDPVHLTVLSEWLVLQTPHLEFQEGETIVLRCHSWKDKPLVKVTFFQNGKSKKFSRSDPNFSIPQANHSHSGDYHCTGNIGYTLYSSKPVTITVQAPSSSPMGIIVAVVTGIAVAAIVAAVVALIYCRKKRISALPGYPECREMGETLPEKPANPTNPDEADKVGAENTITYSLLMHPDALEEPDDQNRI

## Pertuzumab (antibody)
[1]
  EC50: 0.716 nM
[2]
  EC50: 1.35 nM

## Trastuzumab (antibody)
[1]
  EC50: 0.731 nM

## Urelumab (antibody)
[1]
  EC50: 0.462 nM

Reference: patent EP4592315A1
